This is an account of results in patent US20190169261A1 (published 2019).

The target in test [1] is T1, PRAME peptide on HLA-A*02:01 (human).
T1 peptide: SLLQHLIGL
The test can be described thus: killing.

The target of test [2] is T2, PRAME peptide on HLA-A*02:01 (human).
T2 peptide: VLDGLDVLL
The test can be described thus: multimer staining.

B1: TCR T4.8-1-29 (TCR, V domains shown)
Valpha: EDQVTQSPEALRLQEGESSSLNCSYTVSGLRGLFWYRQDPGKGPEFLFTLYSAGEEKEKERLKATLTKKESFLHITAPKPEDSATYLCAVHSTAQAGTALIFGKGTTLSVSS
Vbeta: DSGVTQTPKHLITATGQRVTLRCSPRSGDLSVYWYQQSLDQGLQFLIQYYNGEERAKGNILERFSAQQFPDLHSELNLSSLELGDSALYFCASSTHRGQTNYGYTFGSGTRLTVV
In the case of B1, the binding result in test [1] is reported as “no recognition”; in test [2], “recognises”.
